Results: patent publication US20050191621A1

Assays:
[1] = molecular target: 8x-V3BaL Env (8x Env with the V3 loop of HIV-1/BaL; on cells or on luciferase reporter virions) (HIV-1 (IIIBx 8x/BaL chimera)); assay: cell-based or functional assay
[2] = molecular target: IIIB-V3BaL Env (HXB Env with the V3 loop of HIV-1/BaL; on luciferase reporter virions) (HIV-1 (IIIB/BaL chimera)); assay: cell-based or functional assay

Substance	concentration of antibody required to neutralize 50% of input virus (luciferase reporter virus, GHOST-CCR5 cells) [1] [ng/mL]	concentration of antibody required to neutralize 90% of input virus (luciferase reporter virus, GHOST-CCR5 cells) [1] [ng/mL]	percent neutralization at 200 ng/ml (luciferase reporter virus, GHOST-CCR5 cells) [1] [%]	concentration of antibody required to neutralize 50% of input virus (luciferase reporter virus, GHOST-CCR5 cells) [2] [ng/mL]	concentration of antibody required to neutralize 90% of input virus (luciferase reporter virus, GHOST-CCR5 cells) [2] [ng/mL]
CD4-induced (CD4i) monoclonal antibody 48d	3	> 200	88	> 5000	> 5000
CD4-induced (CD4i) monoclonal antibody 17b	2	15		14	90
